This passage reports Kd, koff and kon results from patent US20210070881A1 (DENALI THERAPEUTICS, published 2021).

B1: 2H8.03 (antibody, human IgG1, V domains shown)
VH: EVQLQQSGAELVRPGTSVKLSCKASGYTFTSYWIHWVKQRPGQGLEWIGMIDPSDSYTKYNQKFKDKATLTVDTSSSTTYMHLSSLTSEDSAVYYCARSGVAFPYWGQRTLVTVSA
VL: DIVMTQSQKFMSKSVGDTVSVTCKASQDVGRNVAWYQQKSGQSPKSLIYSASHRYSGVPDRFTGSGSGTDFTLTISNVQSEDLADYFCQQYNSYPYTFGGGTRLEIK
notes: human IgG1/kappa; also called 2H8_HCvar3 + 2H8_LC
B2: 2H8.26 (antibody, human IgG1, V domains shown)
VH: EVQLQQPGTELVRPGTSVKLSCKASGYTFTNYWMHWIKQRPGQGLEWIGMIDPSDTYTKFNQNFKGKATLTVDTSSSTAYMQLNSLTSEDSAVYYCARSGVAFPYWGQGTTVTVSS
VL: DIVMTQSQKFMSTSVGDRVSVTCKASQNVGTNVAWYQQKSGQSPKALIYSASHRYSGVPDRFTGSGSGTDFTLTISNVQSEDLAEYFCQQYNSYPYTFGGGTKLEIK
notes: human IgG1/kappa; also called 2H8_HCvar2 + 2H8_LCvar5
B3: 2H8.30 (antibody, human IgG1, V domains shown)
VH: EVQLQQSGAELVRPGTSVKLSCKASGYTFNNYWMHWVKQRPGQGLEWIGMIDPSDDDIKNNQKFKGKATLTVDTSSSTAYMQLISLTSEDSAVYYCARSGVALPYWGQGTLVTVSA
VL: DIVMTQSQKFMSTSVGDRVSVTCKASQNVGTNVAWYQQKSGQSPKALIYSASHRYSGVPDRFTGSGSGTDFTLTISNVQSEDLAEYFCQQYNSYPYTFGGGTKLEIK
notes: human IgG1/kappa; also called 2H8_HCvar6 + 2H8_LCvar5
B4: 2H8.29 (antibody, human IgG1, V domains shown)
VH: EVQLQQPGAEVVRPGTSVKLSCKASGYTFTNYWMHWVKQRPGQGLEWIGMIDPSDNYTKYNQKLKGKATLTVDTSSSTANMHVNSLTSEDSAVYFCARSGVAFPYWGQGTLVTVSA
VL: DIVMTQSQKFMSTSVGDRVSVTCKASQNVGTNVAWYQQKSGQSPKALIYSASHRYSGVPDRFTGSGSGTDFTLTISNVQSEDLAEYFCQQYNSYPYTFGGGTKLEIK
notes: human IgG1/kappa; also called 2H8_HCvar5 + 2H8_LCvar5
B5: 2H8.07 (antibody, human IgG1, V domains shown)
VH: EVQLQQSGPELVKPGASVKLSCKASGYTFTNFWIHWLKQRPGQGLEWIGMIDPSDSYTKYNQKFKAKATLTVDTSSSTTYMHLSSLTSEDSAVYYCARSGVAFPYWGQRTLVTVSA
VL: DIVMTQSQKFMSTSVGDRVSVTCKASQNVGTNVAWYQQKPGQSPKALIYSASHRYSGVPDRFTGSGSGTDFTLTISNVQSEDLAEYFCQQYNSYMYTFGGGTKLEIK
notes: human IgG1/kappa; also called 2H8_HC + 2H8_LCvar2
B6: 2H8.19 (antibody, human IgG1, V domains shown)
VH: EVQLQQSGPELVKPGASVKLSCKASGYTFTNFWIHWLKQRPGQGLEWIGMIDPSDSYTKYNQKFKAKATLTVDTSSSTTYMHLSSLTSEDSAVYYCARSGVAFPYWGQRTLVTVSA
VL: DIVMTQSQKFMSTSVGDRVSITCKASQNVGTNVAWYQQKPGQSPKALIYSASYRYSGVPDRFTGSGSGTDFTLTISNVQSEDLAEYFCQQYNSYPYTFGGGTKLEIK
notes: human IgG1/kappa; also called 2H8_HC + 2H8_LCvar4
B7: 2H8.22 (antibody, human IgG1, V domains shown)
VH: EIQLQQSGTELVRPGTSVKLSCKASGYTFTNYWMHWVKQRPGQGLEWIGMIDPSAAYTNYNQNFKGKATLTVDTSSGTAYMQLSSLTSEDSAVYYCARSGVAFPYWGQGTTVTVSS
VL: DIVMTQSQKFMSTSVGDRVSITCKASQNVGTNVAWYQQKPGQSPKALIYSASYRYSGVPDRFTGSGSGTDFTLTISNVQSEDLAEYFCQQYNSYPYTFGGGTKLEIK
notes: human IgG1/kappa; also called 2H8_HCvar4 + 2H8_LCvar4
B8: 2H8.17 (antibody, human IgG1, V domains shown)
VH: EVQLQQPGAEVVRPGTSVKLSCKASGYTFTNYWMHWVKQRPGQGLEWIGMIDPSDNYTKYNQKLKGKATLTVDTSSSTANMHVNSLTSEDSAVYFCARSGVAFPYWGQGTLVTVSA
VL: DIQMTQSQKFMSTSIGDRVSVTCKASQNVGTNVAWYQQKPGQSPKSLIYSASHWYSGVPDRFTGSGSGTDFTLTISNVQSEDLAEYFCQQYNSYPYTFGGGTKLEIK
notes: human IgG1/kappa; also called 2H8_HCvar5 + 2H8_LCvar3
B9: 2H8.28 (antibody, human IgG1, V domains shown)
VH: EIQLQQSGTELVRPGTSVKLSCKASGYTFTNYWMHWVKQRPGQGLEWIGMIDPSAAYTNYNQNFKGKATLTVDTSSGTAYMQLSSLTSEDSAVYYCARSGVAFPYWGQGTTVTVSS
VL: DIVMTQSQKFMSTSVGDRVSVTCKASQNVGTNVAWYQQKSGQSPKALIYSASHRYSGVPDRFTGSGSGTDFTLTISNVQSEDLAEYFCQQYNSYPYTFGGGTKLEIK
notes: human IgG1/kappa; also called 2H8_HCvar4 + 2H8_LCvar5
B10: 2H8.11 (antibody, human IgG1, V domains shown)
VH: EVQLQQPGAEVVRPGTSVKLSCKASGYTFTNYWMHWVKQRPGQGLEWIGMIDPSDNYTKYNQKLKGKATLTVDTSSSTANMHVNSLTSEDSAVYFCARSGVAFPYWGQGTLVTVSA
VL: DIVMTQSQKFMSTSVGDRVSVTCKASQNVGTNVAWYQQKPGQSPKALIYSASHRYSGVPDRFTGSGSGTDFTLTISNVQSEDLAEYFCQQYNSYMYTFGGGTKLEIK
notes: human IgG1/kappa; also called 2H8_HCvar5 + 2H8_LCvar2
B11: 2H8.33 (antibody, human IgG1, V domains shown)
VH: EVQLQQSGAELVRPGTSVKLSCKASGYTFTSYWIHWVKQRPGQGLEWIGMIDPSDSYTKYNQKFKDKATLTVDTSSSTTYMHLSSLTSEDSAVYYCARSGVAFPYWGQRTLVTVSA
VL: DIQMTQSQKFMSKSVGDRVSVTCKASQNVGSNVAWYQQKSGQSPKSLIYSASHRYSGVPDRFTGSGSGTDFTLTISNVQSEDLADYFCQQYNSYPYTFGGGTRLEIK
notes: human IgG1/kappa; also called 2H8_HCvar3 + 2H8_LCvar6
B12: 2H8.23 (antibody, human IgG1, V domains shown)
VH: EVQLQQPGAEVVRPGTSVKLSCKASGYTFTNYWMHWVKQRPGQGLEWIGMIDPSDNYTKYNQKLKGKATLTVDTSSSTANMHVNSLTSEDSAVYFCARSGVAFPYWGQGTLVTVSA
VL: DIVMTQSQKFMSTSVGDRVSITCKASQNVGTNVAWYQQKPGQSPKALIYSASYRYSGVPDRFTGSGSGTDFTLTISNVQSEDLAEYFCQQYNSYPYTFGGGTKLEIK
notes: human IgG1/kappa; also called 2H8_HCvar5 + 2H8_LCvar4
B13: 2H8.14 (antibody, human IgG1, V domains shown)
VH: EVQLQQPGTELVRPGTSVKLSCKASGYTFTNYWMHWIKQRPGQGLEWIGMIDPSDTYTKFNQNFKGKATLTVDTSSSTAYMQLNSLTSEDSAVYYCARSGVAFPYWGQGTTVTVSS
VL: DIQMTQSQKFMSTSIGDRVSVTCKASQNVGTNVAWYQQKPGQSPKSLIYSASHWYSGVPDRFTGSGSGTDFTLTISNVQSEDLAEYFCQQYNSYPYTFGGGTKLEIK
notes: human IgG1/kappa; also called 2H8_HCvar2 + 2H8_LCvar3
B14: 2H8.10 (antibody, human IgG1, V domains shown)
VH: EIQLQQSGTELVRPGTSVKLSCKASGYTFTNYWMHWVKQRPGQGLEWIGMIDPSAAYTNYNQNFKGKATLTVDTSSGTAYMQLSSLTSEDSAVYYCARSGVAFPYWGQGTTVTVSS
VL: DIVMTQSQKFMSTSVGDRVSVTCKASQNVGTNVAWYQQKPGQSPKALIYSASHRYSGVPDRFTGSGSGTDFTLTISNVQSEDLAEYFCQQYNSYMYTFGGGTKLEIK
notes: human IgG1/kappa; also called 2H8_HCvar4 + 2H8_LCvar2
B15: 2H8.38 (antibody, human IgG1, V domains shown)
VH: EVQLQQPGTELVRPGTSVKLSCKASGYTFTNYWMHWIKQRPGQGLEWIGMIDPSDTYTKFNQNFKGKATLTVDTSSSTAYMQLNSLTSEDSAVYYCARSGVAFPYWGQGTTVTVSS
VL: DILMTQSQKFMSTSVGDRVSVTCKASQNVGRNVAWYQQISGQSPKPLIYSASHRYSGVPDRFTGSGSGTDFTLTISNVQSEDLVEFFCQQYNSYPYTFGGGTKLEIK
notes: human IgG1/kappa; also called 2H8_HCvar2 + 2H8_LCvar7
B16: 2H8.20 (antibody, human IgG1, V domains shown)
VH: EVQLQQPGTELVRPGTSVKLSCKASGYTFTNYWMHWIKQRPGQGLEWIGMIDPSDTYTKFNQNFKGKATLTVDTSSSTAYMQLNSLTSEDSAVYYCARSGVAFPYWGQGTTVTVSS
VL: DIVMTQSQKFMSTSVGDRVSITCKASQNVGTNVAWYQQKPGQSPKALIYSASYRYSGVPDRFTGSGSGTDFTLTISNVQSEDLAEYFCQQYNSYPYTFGGGTKLEIK
notes: human IgG1/kappa; also called 2H8_HCvar2 + 2H8_LCvar4
B17: 2H8.08 (antibody, human IgG1, V domains shown)
VH: EVQLQQPGTELVRPGTSVKLSCKASGYTFTNYWMHWIKQRPGQGLEWIGMIDPSDTYTKFNQNFKGKATLTVDTSSSTAYMQLNSLTSEDSAVYYCARSGVAFPYWGQGTTVTVSS
VL: DIVMTQSQKFMSTSVGDRVSVTCKASQNVGTNVAWYQQKPGQSPKALIYSASHRYSGVPDRFTGSGSGTDFTLTISNVQSEDLAEYFCQQYNSYMYTFGGGTKLEIK
notes: human IgG1/kappa; also called 2H8_HCvar2 + 2H8_LCvar2
B18: 2H8.13 (antibody, human IgG1, V domains shown)
VH: EVQLQQSGPELVKPGASVKLSCKASGYTFTNFWIHWLKQRPGQGLEWIGMIDPSDSYTKYNQKFKAKATLTVDTSSSTTYMHLSSLTSEDSAVYYCARSGVAFPYWGQRTLVTVSA
VL: DIQMTQSQKFMSTSIGDRVSVTCKASQNVGTNVAWYQQKPGQSPKSLIYSASHWYSGVPDRFTGSGSGTDFTLTISNVQSEDLAEYFCQQYNSYPYTFGGGTKLEIK
notes: human IgG1/kappa; also called 2H8_HC + 2H8_LCvar3
B19: 2H8.25 (antibody, human IgG1, V domains shown)
VH: EVQLQQSGPELVKPGASVKLSCKASGYTFTNFWIHWLKQRPGQGLEWIGMIDPSDSYTKYNQKFKAKATLTVDTSSSTTYMHLSSLTSEDSAVYYCARSGVAFPYWGQRTLVTVSA
VL: DIVMTQSQKFMSTSVGDRVSVTCKASQNVGTNVAWYQQKSGQSPKALIYSASHRYSGVPDRFTGSGSGTDFTLTISNVQSEDLAEYFCQQYNSYPYTFGGGTKLEIK
notes: human IgG1/kappa; also called 2H8_HC + 2H8_LCvar5

In the assay the target is T1, recombinant BACE1 (BACE1 extracellular domain, R&D Systems Cat#931-AS) (UniProt P56817 22-457).
T1 construct: extracellular domain; also called BACE1 extracellular domain protein
T1 sequence (P56817 22-457): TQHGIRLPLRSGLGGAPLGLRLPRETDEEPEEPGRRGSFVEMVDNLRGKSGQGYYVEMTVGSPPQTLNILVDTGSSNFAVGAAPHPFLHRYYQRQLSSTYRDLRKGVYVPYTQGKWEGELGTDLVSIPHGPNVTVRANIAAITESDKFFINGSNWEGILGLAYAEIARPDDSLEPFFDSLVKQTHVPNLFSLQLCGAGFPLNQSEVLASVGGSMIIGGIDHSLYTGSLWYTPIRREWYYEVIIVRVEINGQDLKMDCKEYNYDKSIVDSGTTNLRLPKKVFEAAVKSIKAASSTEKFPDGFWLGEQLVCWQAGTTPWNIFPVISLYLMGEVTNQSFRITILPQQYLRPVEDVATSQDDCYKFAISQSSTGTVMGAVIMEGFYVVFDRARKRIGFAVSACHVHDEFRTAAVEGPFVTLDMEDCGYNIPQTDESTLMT
The experiment in a line: SPR Biacore. (In general: SPR reads the build-up and loss of mass on a sensor chip optically.)
On to B1, for which the Kd turned out to be 17.9 nM, the koff amounted to 0.000289 s⁻¹ and the kon came out at 16100 M⁻¹ s⁻¹.
For B2, in that order: 18.3 nM, 0.000312 s⁻¹ and 17000 M⁻¹ s⁻¹.
Regarding B3, the Kd was 21.2 nM, the koff came out at 0.000274 s⁻¹ and the on-rate constant (kon) was 12900 M⁻¹ s⁻¹.
Turning to B4, the equilibrium dissociation constant (Kd) stood at 18.6 nM, the dissociation rate constant (koff) worked out at 0.000255 s⁻¹ and the on-rate constant (kon) was 13700 M⁻¹ s⁻¹.
As for B5, the Kd worked out at 20 nM, the dissociation rate constant (koff) is 0.000294 s⁻¹ and the on-rate (kon) came out at 14700 M⁻¹ s⁻¹.
Taken in the same sequence, the figures for B6 were 42.5 nM, 0.000674 s⁻¹ and 15900 M⁻¹ s⁻¹.
In the case of B7, the Kd amounted to 304 nM, the off-rate (koff) turned out to be 0.0109 s⁻¹ and the on-rate constant (kon) came out at 35900 M⁻¹ s⁻¹.
For B8, in that order: 19 nM, 0.000259 s⁻¹ and 13600 M⁻¹ s⁻¹.
Taken in the same sequence, the figures for B9 were 34 nM, 0.00062 s⁻¹ and 18200 M⁻¹ s⁻¹.
Regarding B10, the Kd was 17.7 nM, the koff was determined as 0.000235 s⁻¹ and the kon is 13300 M⁻¹ s⁻¹.
On to B11, for which the dissociation constant (Kd) was 11.8 nM, the off-rate (koff) was found to be 0.000171 s⁻¹ and the association rate constant (kon) is 14500 M⁻¹ s⁻¹.
In the case of B12, the Kd stood at 79.4 nM, the koff was 0.00101 s⁻¹ and the on-rate constant (kon) was determined as 12700 M⁻¹ s⁻¹.
For B13, in that order: 19.2 nM, 0.000291 s⁻¹ and 15200 M⁻¹ s⁻¹.
For B14, in that order: 62 nM, 0.000878 s⁻¹ and 14200 M⁻¹ s⁻¹.
For B15, in that order: 17.8 nM, 0.000329 s⁻¹ and 18500 M⁻¹ s⁻¹.
Consider B16, for which the Kd was 93.4 nM, the koff came to 0.00147 s⁻¹ and the kon is 15800 M⁻¹ s⁻¹.
Take B17: the equilibrium dissociation constant (Kd) is 20.9 nM, the koff was 0.000299 s⁻¹ and the on-rate (kon) came out at 14300 M⁻¹ s⁻¹.
Take B18: the Kd came out at 19.8 nM, the off-rate (koff) stood at 0.000308 s⁻¹ and the kon was found to be 15500 M⁻¹ s⁻¹.
B19: the equilibrium dissociation constant (Kd) worked out at 15.2 nM, the koff was found to be 0.000251 s⁻¹ and the kon turned out to be 16500 M⁻¹ s⁻¹.

One may read the Kd as a measure of binding affinity in units of concentration. The koff is a measure of how fast the partners let go of each other. One may read the kon as the second-order rate constant of association.
